Values of other authors in PMC3433420.
Read-outs that look alike come from different tables or passages of the source.

What was measured:
Settings in all cases: cited from earlier work
SYK-NC (Homo sapiens) [1] = biological target: SYK-NC (Homo sapiens) (UniProt P43405)
BLK (Homo sapiens) [2] = biological target: BLK (Homo sapiens) (UniProt P51451)
ABL2 (Homo sapiens) [3] = biological target: ABL2 (Homo sapiens) (UniProt P42684)
ABL2 (Homo sapiens) [4] = biological target: ABL2 (Homo sapiens) (UniProt P42684); remark: listed apart in the source
RASA1-N (Homo sapiens) [5] = biological target: RASA1-N (Homo sapiens) (UniProt P20936)
RASA1-N (Homo sapiens) [6] = biological target: RASA1-N (Homo sapiens) (UniProt P20936); remark: listed apart in the source
YES1 (Homo sapiens) [7] = biological target: YES1 (Homo sapiens) (UniProt P07947)
SHB (Homo sapiens) = SHB (Homo sapiens) (UniProt Q15464)
SYK-NC (Homo sapiens) [8] = biological target: SYK-NC (Homo sapiens) (UniProt P43405); remark: listed apart in the source
SYK-NC (Homo sapiens) [9] = biological target: SYK-NC (Homo sapiens) (UniProt P43405); remark: listed apart in the source
SYK-C (Homo sapiens) = SYK-C (Homo sapiens) (UniProt P43405)
ITK (Homo sapiens) = ITK (Homo sapiens) (UniProt Q08881)
ABL2 (Homo sapiens) [10] = biological target: ABL2 (Homo sapiens) (UniProt P42684); remark: listed apart in the source
ABL2 (Homo sapiens) [11] = biological target: ABL2 (Homo sapiens) (UniProt P42684); remark: listed apart in the source
PLCG2-NC (Homo sapiens) [12] = biological target: PLCG2-NC (Homo sapiens) (UniProt P16885)
PIK3R3-NC (Homo sapiens) [13] = biological target: PIK3R3-NC (Homo sapiens) (UniProt Q92569)
PIK3R3-NC (Homo sapiens) [14] = biological target: PIK3R3-NC (Homo sapiens) (UniProt Q92569); remark: listed apart in the source
FGR (Homo sapiens) [15] = biological target: FGR (Homo sapiens) (UniProt P09769)
VAV3 (Homo sapiens) = VAV3 (Homo sapiens) (UniProt Q9UKW4)
RASA1-N (Homo sapiens) [16] = biological target: RASA1-N (Homo sapiens) (UniProt P20936); remark: listed apart in the source
RASA1-N (Homo sapiens) [17] = biological target: RASA1-N (Homo sapiens) (UniProt P20936); remark: listed apart in the source
VAV1 (Homo sapiens) = VAV1 (Homo sapiens) (UniProt P15498)
GRB2 (Homo sapiens) = GRB2 (Homo sapiens) (UniProt P62993)
PIK3R1-NC (Homo sapiens) [18] = biological target: PIK3R1-NC (Homo sapiens) (UniProt P27986)
NCK2 (Homo sapiens) [19] = biological target: NCK2 (Homo sapiens) (UniProt O43639)
NCK2 (Homo sapiens) [20] = biological target: NCK2 (Homo sapiens) (UniProt O43639); remark: listed apart in the source
PIK3R3-N (Homo sapiens) [21] = biological target: PIK3R3-N (Homo sapiens) (UniProt Q92569)
SHC1-PTB (Homo sapiens) [22] = biological target: SHC1-PTB (Homo sapiens) (UniProt P29353)
SHC1-PTB (Homo sapiens) [23] = biological target: SHC1-PTB (Homo sapiens) (UniProt P29353); remark: listed apart in the source
VAV2 (Homo sapiens) [24] = biological target: VAV2 (Homo sapiens) (UniProt P52735)
VAV2 (Homo sapiens) [25] = biological target: VAV2 (Homo sapiens) (UniProt P52735); remark: listed apart in the source
YES1 (Homo sapiens) [26] = biological target: YES1 (Homo sapiens) (UniProt P07947); remark: listed apart in the source
CRKL (Homo sapiens) = CRKL (Homo sapiens) (UniProt P46109)
PIK3R2-N (Homo sapiens) [27] = biological target: PIK3R2-N (Homo sapiens) (UniProt O00459)
GRB7 (Homo sapiens) = GRB7 (Homo sapiens) (UniProt Q14451)
SLA (Homo sapiens) = SLA (Homo sapiens) (UniProt Q13239)
ABL2 (Homo sapiens) [28] = biological target: ABL2 (Homo sapiens) (UniProt P42684); remark: listed apart in the source
PLCG2-NC (Homo sapiens) [29] = biological target: PLCG2-NC (Homo sapiens) (UniProt P16885); remark: listed apart in the source
PIK3R3-NC (Homo sapiens) [30] = biological target: PIK3R3-NC (Homo sapiens) (UniProt Q92569); remark: listed apart in the source
RASA1-N (Homo sapiens) [31] = biological target: RASA1-N (Homo sapiens) (UniProt P20936); remark: listed apart in the source
SOCS5 (Homo sapiens) = SOCS5 (Homo sapiens) (UniProt O75159)
RASA1-NC (Homo sapiens) = RASA1-NC (Homo sapiens) (UniProt P20936)
BLK (Homo sapiens) [32] = biological target: BLK (Homo sapiens) (UniProt P51451); remark: listed apart in the source
ABL2 (Homo sapiens) [33] = biological target: ABL2 (Homo sapiens) (UniProt P42684); remark: listed apart in the source
PIK3R3-NC (Homo sapiens) [34] = biological target: PIK3R3-NC (Homo sapiens) (UniProt Q92569); remark: listed apart in the source
FGR (Homo sapiens) [35] = biological target: FGR (Homo sapiens) (UniProt P09769); remark: listed apart in the source
RASA1-N (Homo sapiens) [36] = biological target: RASA1-N (Homo sapiens) (UniProt P20936); remark: listed apart in the source
ZAP70-NC (Homo sapiens) = ZAP70-NC (Homo sapiens) (UniProt P43403)
PIK3R1-NC (Homo sapiens) [37] = biological target: PIK3R1-NC (Homo sapiens) (UniProt P27986); remark: listed apart in the source
PIK3R3-N (Homo sapiens) [38] = biological target: PIK3R3-N (Homo sapiens) (UniProt Q92569); remark: listed apart in the source
YES1 (Homo sapiens) [39] = biological target: YES1 (Homo sapiens) (UniProt P07947); remark: listed apart in the source
PIK3R2-N (Homo sapiens) [40] = biological target: PIK3R2-N (Homo sapiens) (UniProt O00459); remark: listed apart in the source

RASA1-N (Homo sapiens), sequence (P20936 176-446): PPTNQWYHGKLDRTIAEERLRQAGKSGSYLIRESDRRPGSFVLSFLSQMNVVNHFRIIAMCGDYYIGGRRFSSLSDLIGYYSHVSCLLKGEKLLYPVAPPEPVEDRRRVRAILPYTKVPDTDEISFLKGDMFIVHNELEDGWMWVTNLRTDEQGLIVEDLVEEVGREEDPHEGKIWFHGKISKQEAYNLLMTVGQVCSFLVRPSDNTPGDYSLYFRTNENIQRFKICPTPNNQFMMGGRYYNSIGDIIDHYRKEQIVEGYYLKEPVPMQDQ
ABL2 (Homo sapiens), sequence (P42684 168-268): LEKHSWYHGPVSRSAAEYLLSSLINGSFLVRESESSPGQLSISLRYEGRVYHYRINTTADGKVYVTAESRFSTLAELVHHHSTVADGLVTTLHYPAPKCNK
YES1 (Homo sapiens), sequence (P07947 153-260): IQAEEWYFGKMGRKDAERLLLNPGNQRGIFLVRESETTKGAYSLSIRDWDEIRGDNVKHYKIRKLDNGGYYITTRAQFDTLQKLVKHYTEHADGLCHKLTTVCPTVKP
PIK3R1-NC (Homo sapiens), sequence (P27986 328-723): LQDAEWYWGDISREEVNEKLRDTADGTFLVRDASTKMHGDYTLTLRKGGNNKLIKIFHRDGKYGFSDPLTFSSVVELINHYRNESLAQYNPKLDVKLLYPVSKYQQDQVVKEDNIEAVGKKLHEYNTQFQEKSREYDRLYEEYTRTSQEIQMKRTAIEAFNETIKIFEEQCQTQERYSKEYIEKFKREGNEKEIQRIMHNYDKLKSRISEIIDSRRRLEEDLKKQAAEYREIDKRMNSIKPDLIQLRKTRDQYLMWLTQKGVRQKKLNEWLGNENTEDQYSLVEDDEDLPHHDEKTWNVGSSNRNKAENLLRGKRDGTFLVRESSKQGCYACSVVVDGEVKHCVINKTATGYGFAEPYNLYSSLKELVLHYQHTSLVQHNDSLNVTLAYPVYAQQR
PLCG2-NC (Homo sapiens), sequence (P16885 527-740): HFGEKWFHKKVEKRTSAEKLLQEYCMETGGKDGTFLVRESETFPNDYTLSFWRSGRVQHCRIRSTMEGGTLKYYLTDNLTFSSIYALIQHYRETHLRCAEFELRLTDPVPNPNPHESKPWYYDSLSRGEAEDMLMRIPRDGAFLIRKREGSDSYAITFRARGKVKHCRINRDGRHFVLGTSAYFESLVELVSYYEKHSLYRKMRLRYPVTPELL
VAV2 (Homo sapiens), sequence (P52735 668-772): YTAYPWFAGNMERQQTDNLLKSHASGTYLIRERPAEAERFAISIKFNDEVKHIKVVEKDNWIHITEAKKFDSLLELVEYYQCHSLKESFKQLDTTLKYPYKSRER
NCK2 (Homo sapiens), sequence (O43639 280-380): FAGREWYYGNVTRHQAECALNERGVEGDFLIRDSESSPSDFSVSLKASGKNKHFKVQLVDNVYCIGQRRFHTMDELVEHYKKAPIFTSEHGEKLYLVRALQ
BLK (Homo sapiens), sequence (P51451 119-225): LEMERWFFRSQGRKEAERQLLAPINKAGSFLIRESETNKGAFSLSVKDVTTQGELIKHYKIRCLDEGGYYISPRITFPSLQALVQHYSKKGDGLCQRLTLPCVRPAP
PIK3R2-N (Homo sapiens), sequence (O00459 325-721): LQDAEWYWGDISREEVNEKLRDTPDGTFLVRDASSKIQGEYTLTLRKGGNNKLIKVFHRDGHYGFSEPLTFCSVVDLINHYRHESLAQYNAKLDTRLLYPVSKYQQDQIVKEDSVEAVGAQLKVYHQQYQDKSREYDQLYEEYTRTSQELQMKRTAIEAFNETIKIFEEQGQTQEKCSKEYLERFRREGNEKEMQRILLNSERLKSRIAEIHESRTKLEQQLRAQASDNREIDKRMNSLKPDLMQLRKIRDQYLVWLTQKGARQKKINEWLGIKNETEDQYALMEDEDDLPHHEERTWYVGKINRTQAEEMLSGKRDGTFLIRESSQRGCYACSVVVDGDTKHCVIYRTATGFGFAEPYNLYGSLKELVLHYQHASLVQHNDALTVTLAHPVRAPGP
SHC1-PTB (Homo sapiens), sequence (P29353 483-583): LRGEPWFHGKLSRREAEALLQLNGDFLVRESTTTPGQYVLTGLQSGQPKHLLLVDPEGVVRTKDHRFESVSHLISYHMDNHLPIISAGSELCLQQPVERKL
SHB (Homo sapiens), sequence (Q15464 405-509): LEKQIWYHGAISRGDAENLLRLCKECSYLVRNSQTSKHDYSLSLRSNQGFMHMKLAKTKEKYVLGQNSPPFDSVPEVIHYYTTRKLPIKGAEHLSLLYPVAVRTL
ITK (Homo sapiens), sequence (Q08881 234-343): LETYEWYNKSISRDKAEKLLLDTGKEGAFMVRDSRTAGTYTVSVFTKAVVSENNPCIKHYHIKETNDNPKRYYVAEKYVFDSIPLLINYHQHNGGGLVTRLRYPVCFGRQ
RASA1-NC (Homo sapiens), sequence (P20936 176-446): as the sequence (P20936 176-446) above
VAV3 (Homo sapiens), sequence (Q9UKW4 667-771): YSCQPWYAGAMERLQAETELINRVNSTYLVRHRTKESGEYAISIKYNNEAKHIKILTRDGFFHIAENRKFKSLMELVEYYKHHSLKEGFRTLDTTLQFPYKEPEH
GRB7 (Homo sapiens), sequence (Q14451 426-532): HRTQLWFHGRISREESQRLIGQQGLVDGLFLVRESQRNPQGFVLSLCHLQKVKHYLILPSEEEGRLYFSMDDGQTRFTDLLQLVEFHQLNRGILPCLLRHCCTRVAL
SLA (Homo sapiens), sequence (Q13239 79-180): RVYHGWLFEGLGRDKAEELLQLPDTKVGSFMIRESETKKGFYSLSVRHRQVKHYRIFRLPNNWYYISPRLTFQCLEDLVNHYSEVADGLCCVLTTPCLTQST
GRB2 (Homo sapiens), sequence (P62993 55-157): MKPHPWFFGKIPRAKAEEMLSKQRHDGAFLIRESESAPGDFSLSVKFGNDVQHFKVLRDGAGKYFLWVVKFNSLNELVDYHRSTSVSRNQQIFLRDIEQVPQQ
VAV1 (Homo sapiens), sequence (P15498 666-770): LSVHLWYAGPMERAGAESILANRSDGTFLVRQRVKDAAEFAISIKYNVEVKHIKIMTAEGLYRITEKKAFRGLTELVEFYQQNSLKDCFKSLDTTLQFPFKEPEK
SOCS5 (Homo sapiens), sequence (O75159 376-481): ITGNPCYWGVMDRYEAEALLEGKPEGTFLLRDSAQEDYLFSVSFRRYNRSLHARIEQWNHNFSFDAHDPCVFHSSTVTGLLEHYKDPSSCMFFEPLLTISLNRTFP
CRKL (Homo sapiens), sequence (P46109 9-107): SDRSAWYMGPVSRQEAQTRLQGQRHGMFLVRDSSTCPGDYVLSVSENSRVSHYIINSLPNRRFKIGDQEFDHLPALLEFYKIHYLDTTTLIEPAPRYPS
ZAP70-NC (Homo sapiens), sequence (P43403 5-259): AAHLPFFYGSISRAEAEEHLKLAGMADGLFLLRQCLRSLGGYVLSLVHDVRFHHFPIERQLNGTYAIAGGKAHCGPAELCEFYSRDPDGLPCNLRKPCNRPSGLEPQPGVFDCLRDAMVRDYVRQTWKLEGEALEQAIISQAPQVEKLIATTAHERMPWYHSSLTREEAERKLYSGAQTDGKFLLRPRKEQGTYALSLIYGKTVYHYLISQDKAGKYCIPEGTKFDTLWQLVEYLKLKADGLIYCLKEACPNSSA

Q: Which results are given for …pYDGIPASEd?
A: apparent Kd (screen) (SYK-NC (Homo sapiens) [1]): 1.55 µM; apparent Kd (screen) (BLK (Homo sapiens) [2]): 1.18 µM; apparent Kd (screen) (ABL2 (Homo sapiens) [3]): 0.177 µM; apparent Kd (screen) (ABL2 (Homo sapiens) [4]): 0.137 µM; apparent Kd (screen) (RASA1-N (Homo sapiens) [5]): 1.41 µM; apparent Kd (screen) (RASA1-N (Homo sapiens) [6]): 1.47 µM; apparent Kd (screen) (YES1 (Homo sapiens) [7]): 0.328 µM; apparent Kd (screen) (SHB (Homo sapiens)): 1.06 µM

Q: For …pYLTPQGGA, which apparent Kd (screen) (SYK-NC (Homo sapiens) [8]) is on record?
A: 1.33 µM

Q: And the apparent Kd (screen) (SYK-NC (Homo sapiens) [9])?
A: 1.15 µM

Q: What about the apparent Kd (screen) (SYK-C (Homo sapiens)) of the same substance?
A: 1.24 µM

Q: And the apparent Kd (screen) (ITK (Homo sapiens))?
A: 0.767 µM

Q: And the apparent Kd (screen) (ABL2 (Homo sapiens) [10])?
A: 0.476 µM

Q: What about the apparent Kd (screen) (ABL2 (Homo sapiens) [11]) of the same substance?
A: 0.368 µM

Q: What about the apparent Kd (screen) (PLCG2-NC (Homo sapiens) [12]) of the same substance?
A: 1.35 µM

Q: What about the apparent Kd (screen) (PIK3R3-NC (Homo sapiens) [13]) of the same substance?
A: 1.34 µM

Q: What about the apparent Kd (screen) (PIK3R3-NC (Homo sapiens) [14]) of the same substance?
A: 0.95 µM

Q: And the apparent Kd (screen) (FGR (Homo sapiens) [15])?
A: 1.68 µM

Q: And the apparent Kd (screen) (VAV3 (Homo sapiens))?
A: 0.596 µM

Q: And the apparent Kd (screen) (RASA1-N (Homo sapiens) [16])?
A: 0.671 µM

Q: And the apparent Kd (screen) (RASA1-N (Homo sapiens) [17])?
A: 0.638 µM

Q: And the apparent Kd (screen) (VAV1 (Homo sapiens))?
A: 1.25 µM

Q: And the apparent Kd (screen) (GRB2 (Homo sapiens))?
A: 1.33 µM

Q: And the apparent Kd (screen) (PIK3R1-NC (Homo sapiens) [18])?
A: 0.226 µM

Q: What about the apparent Kd (screen) (NCK2 (Homo sapiens) [19]) of the same substance?
A: 1.1 µM

Q: And the apparent Kd (screen) (NCK2 (Homo sapiens) [20])?
A: 0.759 µM

Q: What about the apparent Kd (screen) (PIK3R3-N (Homo sapiens) [21]) of the same substance?
A: 1.39 µM

Q: What about the apparent Kd (screen) (SHC1-PTB (Homo sapiens) [22]) of the same substance?
A: 0.346 µM

Q: What about the apparent Kd (screen) (SHC1-PTB (Homo sapiens) [23]) of the same substance?
A: 0.153 µM

Q: What about the apparent Kd (screen) (VAV2 (Homo sapiens) [24]) of the same substance?
A: 0.226 µM

Q: What about the apparent Kd (screen) (VAV2 (Homo sapiens) [25]) of the same substance?
A: 0.372 µM

Q: What about the apparent Kd (screen) (YES1 (Homo sapiens) [26]) of the same substance?
A: 1.19 µM

Q: And the apparent Kd (screen) (CRKL (Homo sapiens))?
A: 1.44 µM

Q: And the apparent Kd (screen) (PIK3R2-N (Homo sapiens) [27])?
A: 1.28 µM

Q: Which results are given for …pYMNRQRDG?
A: apparent Kd (screen) (GRB7 (Homo sapiens)): 2 µM; apparent Kd (screen) (SLA (Homo sapiens)): 2 µM; apparent Kd (screen) (ABL2 (Homo sapiens) [28]): 1.96 µM; apparent Kd (screen) (PLCG2-NC (Homo sapiens) [29]): 2 µM; apparent Kd (screen) (PIK3R3-NC (Homo sapiens) [30]): 2 µM; apparent Kd (screen) (RASA1-N (Homo sapiens) [31]): 1.21 µM; apparent Kd (screen) (SOCS5 (Homo sapiens)): 2 µM; apparent Kd (screen) (RASA1-NC (Homo sapiens)): 2 µM

Q: With …pYMNRRRRH as the substance, how does the apparent Kd (screen) (BLK (Homo sapiens) [32]) read?
A: 1.81 µM

Q: What about the apparent Kd (screen) (ABL2 (Homo sapiens) [33]) of the same substance?
A: 0.296 µM

Q: And the apparent Kd (screen) (PIK3R3-NC (Homo sapiens) [34])?
A: 1.46 µM

Q: What about the apparent Kd (screen) (FGR (Homo sapiens) [35]) of the same substance?
A: 1.13 µM

Q: What about the apparent Kd (screen) (RASA1-N (Homo sapiens) [36]) of the same substance?
A: 0.306 µM

Q: And the apparent Kd (screen) (ZAP70-NC (Homo sapiens))?
A: 1.47 µM

Q: And the apparent Kd (screen) (PIK3R1-NC (Homo sapiens) [37])?
A: 1.51 µM

Q: What about the apparent Kd (screen) (PIK3R3-N (Homo sapiens) [38]) of the same substance?
A: 1.38 µM

Q: And the apparent Kd (screen) (YES1 (Homo sapiens) [39])?
A: 0.585 µM

Q: And the apparent Kd (screen) (PIK3R2-N (Homo sapiens) [40])?
A: 1.35 µM
